According to publication PMC10099770:
Changes are numbered by the printed parent chain. Names may count otherwise. Blank lines part the entries; values can stand above or below the molecule they belong to.

Columns and labels:
FLAG-AKAP13 T2467A = FLAG-AKAP13 T2467A (UniProt Q12802); assay: co-IP; FLAG construct precipitated from transfected HEK293T lysate on anti-DYKDDDDK resin or DYKDDDDK Fab-Trap agarose, 1 hour at 4 °C; lysis buffer 10 mM HEPES KOH pH 7.5, 150 mM KCl, 0.01% IGEPAL with protease and phosphatase inhibitors; washed with PBS three times; immunoblot for 14-3-3
14-3-3, P63104 = molecular target: T1, 14-3-3, P63104; assay: co-immunoprecipitation (IP: FLAG) with immunoblot quantification; settings: chain shown with the change; HEK293T cells; 3 biological replicates; parent: est. 1.0; read off a plot
T1 chain: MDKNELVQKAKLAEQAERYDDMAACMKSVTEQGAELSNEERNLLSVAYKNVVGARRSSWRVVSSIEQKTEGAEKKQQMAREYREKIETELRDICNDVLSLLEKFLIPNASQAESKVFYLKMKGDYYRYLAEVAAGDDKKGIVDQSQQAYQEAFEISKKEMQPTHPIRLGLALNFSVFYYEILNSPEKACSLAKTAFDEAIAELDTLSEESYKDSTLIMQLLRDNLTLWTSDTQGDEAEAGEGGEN

Sequence of UniProt Q12802 (Q12802 whole entry T2467A): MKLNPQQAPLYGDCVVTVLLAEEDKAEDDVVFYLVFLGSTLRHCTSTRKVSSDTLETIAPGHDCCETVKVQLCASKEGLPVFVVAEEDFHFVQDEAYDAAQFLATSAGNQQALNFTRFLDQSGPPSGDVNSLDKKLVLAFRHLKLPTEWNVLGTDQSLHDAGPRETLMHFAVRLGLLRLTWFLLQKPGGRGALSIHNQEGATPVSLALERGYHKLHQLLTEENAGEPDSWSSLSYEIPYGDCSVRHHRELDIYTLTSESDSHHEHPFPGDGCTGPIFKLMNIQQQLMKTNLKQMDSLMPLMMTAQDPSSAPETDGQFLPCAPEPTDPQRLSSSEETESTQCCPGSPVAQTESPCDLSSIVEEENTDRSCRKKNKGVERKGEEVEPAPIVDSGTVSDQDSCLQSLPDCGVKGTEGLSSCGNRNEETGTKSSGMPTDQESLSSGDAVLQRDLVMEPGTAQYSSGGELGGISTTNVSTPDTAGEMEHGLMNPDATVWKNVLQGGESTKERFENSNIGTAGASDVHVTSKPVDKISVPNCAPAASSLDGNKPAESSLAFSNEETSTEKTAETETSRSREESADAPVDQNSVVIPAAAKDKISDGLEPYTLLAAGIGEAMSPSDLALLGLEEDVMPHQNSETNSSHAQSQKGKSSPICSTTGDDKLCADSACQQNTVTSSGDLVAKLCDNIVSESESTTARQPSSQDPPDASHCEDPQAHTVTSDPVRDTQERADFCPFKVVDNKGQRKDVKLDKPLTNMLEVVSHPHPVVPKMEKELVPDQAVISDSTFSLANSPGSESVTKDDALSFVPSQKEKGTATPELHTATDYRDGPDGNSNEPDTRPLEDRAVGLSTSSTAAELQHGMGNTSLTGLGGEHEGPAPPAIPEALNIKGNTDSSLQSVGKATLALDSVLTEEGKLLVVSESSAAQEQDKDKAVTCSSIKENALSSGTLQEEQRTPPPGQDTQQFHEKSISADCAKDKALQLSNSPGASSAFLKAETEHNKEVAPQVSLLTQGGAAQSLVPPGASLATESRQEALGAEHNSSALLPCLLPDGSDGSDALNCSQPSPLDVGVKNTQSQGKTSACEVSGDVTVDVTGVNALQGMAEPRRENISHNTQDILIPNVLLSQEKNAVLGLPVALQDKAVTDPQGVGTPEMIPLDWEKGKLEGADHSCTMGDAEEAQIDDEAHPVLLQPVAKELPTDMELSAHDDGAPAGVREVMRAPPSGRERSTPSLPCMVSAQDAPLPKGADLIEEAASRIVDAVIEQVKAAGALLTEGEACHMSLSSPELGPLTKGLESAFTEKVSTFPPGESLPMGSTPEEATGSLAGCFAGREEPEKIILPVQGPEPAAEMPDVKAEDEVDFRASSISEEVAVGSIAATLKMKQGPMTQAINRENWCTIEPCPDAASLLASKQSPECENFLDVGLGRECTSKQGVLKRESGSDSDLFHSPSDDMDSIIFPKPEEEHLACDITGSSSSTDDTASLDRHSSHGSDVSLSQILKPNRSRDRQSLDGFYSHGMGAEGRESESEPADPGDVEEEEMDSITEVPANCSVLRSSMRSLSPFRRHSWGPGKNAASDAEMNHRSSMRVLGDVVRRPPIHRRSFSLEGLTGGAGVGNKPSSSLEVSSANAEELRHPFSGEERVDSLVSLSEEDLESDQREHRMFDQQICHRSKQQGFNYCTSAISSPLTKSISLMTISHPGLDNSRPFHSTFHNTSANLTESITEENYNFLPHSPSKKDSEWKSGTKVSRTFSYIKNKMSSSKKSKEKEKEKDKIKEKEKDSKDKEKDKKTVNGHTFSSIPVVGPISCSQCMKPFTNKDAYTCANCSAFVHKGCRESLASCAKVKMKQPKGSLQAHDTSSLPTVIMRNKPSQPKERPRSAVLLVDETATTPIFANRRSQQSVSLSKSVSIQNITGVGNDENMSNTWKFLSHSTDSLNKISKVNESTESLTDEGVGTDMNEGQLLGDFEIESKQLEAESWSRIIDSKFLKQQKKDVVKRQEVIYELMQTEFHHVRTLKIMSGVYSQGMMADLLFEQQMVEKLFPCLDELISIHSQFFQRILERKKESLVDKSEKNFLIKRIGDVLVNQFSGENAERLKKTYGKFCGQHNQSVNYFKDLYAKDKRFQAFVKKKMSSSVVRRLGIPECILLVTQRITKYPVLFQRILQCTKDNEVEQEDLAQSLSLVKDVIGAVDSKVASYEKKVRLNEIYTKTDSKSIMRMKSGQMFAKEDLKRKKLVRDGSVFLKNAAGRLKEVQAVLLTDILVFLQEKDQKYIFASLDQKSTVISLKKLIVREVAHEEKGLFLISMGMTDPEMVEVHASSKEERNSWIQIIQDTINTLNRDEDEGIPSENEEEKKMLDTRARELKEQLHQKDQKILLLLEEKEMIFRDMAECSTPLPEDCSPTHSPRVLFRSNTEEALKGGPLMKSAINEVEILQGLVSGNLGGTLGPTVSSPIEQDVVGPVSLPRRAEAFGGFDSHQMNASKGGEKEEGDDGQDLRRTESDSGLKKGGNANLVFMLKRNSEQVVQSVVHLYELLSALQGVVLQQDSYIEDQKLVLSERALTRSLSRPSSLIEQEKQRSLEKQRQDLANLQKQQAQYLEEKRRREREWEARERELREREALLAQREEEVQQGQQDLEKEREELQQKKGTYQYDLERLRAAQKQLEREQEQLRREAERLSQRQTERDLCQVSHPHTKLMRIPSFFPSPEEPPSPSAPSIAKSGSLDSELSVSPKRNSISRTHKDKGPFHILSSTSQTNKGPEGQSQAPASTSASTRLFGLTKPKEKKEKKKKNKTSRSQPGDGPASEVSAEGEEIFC

Molecule: 14-3-3 (from UniProt P63104 1-245) (natural protein)
loss of co-precipitated 14-3-3 against wild-type AKAP13 (FLAG-AKAP13 T2467A): > 50%

B1: FLAG-TNK1, Q13470 S502A (protein)
chain: MLPEAGSLWLLKLLRDIQLAQFYWPILEELNVTRPEHFDFVKPEDLDGIGMGRPAQRRLSEALKRLRSGPKSKNWVYKILGGFAPEHKEPTLPSDSPRHLPEPEGGLKCLIPEGAVCRGELLGSGCFGVVHRGLWTLPSGKSVPVAVKSLRVGPEGPMGTELGDFLREVSVMMNLEHPHVLRLHGLVLGQPLQMVMELAPLGSLHARLTAPAPTPPLLVALLCLFLRQLAGAMAYLGARGLVHRDLATRNLLLASPRTIKVADFGLVRPLGGARGRYVMGGPRPIPYAWCAPESLRHGAFSSASDVWMFGVTLWEMFSGGEEPWAGVPPYLILQRLEDRARLPRPPLCSRALYSLALRCWAPHPADRPSFSHLEGLLQEAGPSEACCVRDVTEPGALRMETGDPITVIEGSSSFHSPDSTIWKGQNGRTFKVGSFPASAVTLADAGGLPATRPVHRGTPARGDQHPGSIDGDRKKANLWDAPPARGQRRNMPLERMKGISRALESVLSLGPRPTGGGSSPPEIRQARAVPQGPPGLPPRPPLSSSSPQPSQPSRERLPWPKRKPPHNHPMGMPGARKAAALSGGLLSDPELQRKIMEVELSVHGVTHQECQTALGATGGDVVSAIRNLKVDQLFHLSSRSRADCWRILEHYQWDLSAASRYVLARP
ratio to parent (14-3-3, P63104): 0.14

B2: FLAG-TNK1, Q13470 S68A (protein)
chain: B1 chain with S68A, A502S
ratio to parent (14-3-3, P63104): 0.8

B3: FLAG-TNK1, Q13470 S434A (protein)
chain: B1 chain with S434A, A502S
ratio to parent (14-3-3, P63104): 0.88

Further lines, results first:

ratio to parent (14-3-3, P63104): 0.84
B4: FLAG-TNK1, Q13470 T91A (protein)
chain: B1 chain with T91A, A502S

ratio to parent (14-3-3, P63104): 0.67
B5: FLAG-TNK1, Q13470 T392A (protein)
chain: B1 chain with T392A, A502S
